Source: patent publication JP2016028048A (dated 2016)

T1: ヒト組織因子経路インヒビター (human TFPI) (human, UniProt P10646 29-304, limits assumed)
T1 construct: Coated on Maxisorp plates (ELISA) or amine-coupled to a CM5 chip (Biacore); also called ヒトTFPI; hTFPI
T1 sequence (looked up): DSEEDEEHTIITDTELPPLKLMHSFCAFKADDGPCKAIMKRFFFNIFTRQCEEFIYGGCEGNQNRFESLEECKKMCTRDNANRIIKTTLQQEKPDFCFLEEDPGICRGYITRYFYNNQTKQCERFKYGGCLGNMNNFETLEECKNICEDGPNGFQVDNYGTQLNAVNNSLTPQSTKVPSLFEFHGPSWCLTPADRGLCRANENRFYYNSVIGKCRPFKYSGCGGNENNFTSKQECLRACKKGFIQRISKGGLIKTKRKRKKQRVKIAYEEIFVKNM

T2: マウスTFPI (mouse TFPI) (mouse, UniProt O54819 29-289, limits assumed)
T2 construct: Coated on plates (ELISA) or amine-coupled to a CM5 chip (Biacore); also called mTFPI; m-TFPI
T2 sequence (looked up): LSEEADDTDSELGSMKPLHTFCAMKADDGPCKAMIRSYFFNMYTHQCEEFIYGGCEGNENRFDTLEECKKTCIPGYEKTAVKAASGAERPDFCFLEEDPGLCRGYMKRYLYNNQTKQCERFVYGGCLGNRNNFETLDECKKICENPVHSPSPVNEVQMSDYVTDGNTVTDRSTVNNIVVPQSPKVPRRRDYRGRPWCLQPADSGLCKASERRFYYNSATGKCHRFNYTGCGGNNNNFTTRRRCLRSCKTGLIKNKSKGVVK


Columns and labels:
[1] = molecular target: T1, ヒト組織因子経路インヒビター (human TFPI); test: ELISA, Fab in bacterial lysate on human TFPI-coated plate
マウスTFPI (mouse TFPI) [2] = molecular target: T2, マウスTFPI (mouse TFPI); test: ELISA on mouse TFPI-coated plate
[3] = molecular target: T1, ヒト組織因子経路インヒビター (human TFPI); test: ELISA on human TFPI-coated plate
[4] = molecular target: T1, ヒト組織因子経路インヒビター (human TFPI); test: ELISA on human TFPI-coated plate; IgG against the Fab
マウスTFPI (mouse TFPI) [5] = molecular target: T2, マウスTFPI (mouse TFPI); test: ELISA on mouse TFPI-coated plate; IgG against the Fab

| Binder | binding result [1] | also measured |
| --- | --- | --- |
| TP-3D3 (Fab, V domains shown, Human Fab (HuCal Gold), made in E. coli TG1) VH: QVQLVESGGGLVQPGGSLRLSCAASGFTFSSYASWVRQAPGKGLEWVSGISGDGSNTHYADSVKGRFTISRDNSKNTLYLQMNSLRAEDTAVYYCARYDNFYFDVWGQGTLVTVSS VL: DIELTQPPSVSVAPGQTARISCSGDSLGSKFAHWYQQKPGQAPVLVIYDDSNRPSGIPERFSGSNSGNTATLTISGTQAEDEADYYCSTYTSRSHSYVFGGGTKLTVLG | binds | – |
| TP-2A8 (Fab, V domains shown, Human Fab (HuCal Gold), made in E. coli TG1; also called Fab-2A8; TP-2A8-Fab) VH: QVQLVESGGGLVQPGGSLRLSCAASGFTFRSYGMSWVRQAPGKGLEWVSSIRGSSSSTYYADSVKGRFTISRDNSKNTLYLQMNSLRAEDTAVYYCARKYRYWFDYWGQGTLVTVSS VL: DIELTQPPSVSVAPGQTARISCSGDNLRNYYAHWYQQKPGQAPVVVIYYDNNRPSGIPERFSGSNSGNTATLTISGTQAEDEADYYCQSWDDGVPVFGGGTKLTVLG | binds | – |
| TP-2G6 (Fab, V domains shown, Human Fab (HuCal Gold), made in E. coli TG1; also called 2G6-Fab) VH: QVQLQQSGPGLVKPSQTLSLTCAISGDSVSSSSAAWSWIRQSPGRGLEWLGIIYYRSKWYNDYAVSVKSRITINPDTSKNQFSLQLNSVTPEDTAVYYCARHSMVGFDVWGQGTLVTVSS VL: DIVLTQSPATLSLSPGERATLSCRASQYVTSSYLAWYQQKPGQAPRLLIYGSSRATGVPARFSGSGSGTDFTLTISSLEPEDFATYYCQQYSSSPITFGQGTKVEIKR | – | EC50 (マウスTFPI (mouse TFPI) [2]): 5.18 nM; EC50 [3]: 0.48 nM |
| 2G6-IgG (antibody, V domains shown, also called IgG-2G6; TP-2G6 after conversion to IgG) VH: QVQLQQSGPGLVKPSQTLSLTCAISGDSVSSSSAAWSWIRQSPGRGLEWLGIIYYRSKWYNDYAVSVKSRITINPDTSKNQFSLQLNSVTPEDTAVYYCARHSMVGFDVWGQGTLVTVSS VL: DIVLTQSPATLSLSPGERATLSCRASQYVTSSYLAWYQQKPGQAPRLLIYGSSRATGVPARFSGSGSGTDFTLTISSLEPEDFATYYCQQYSSSPITFGQGTKVEIKR | – | EC50 (マウスTFPI (mouse TFPI) [2]): 0.51 nM; fold change of EC50 against 2G6-Fab [4]: 2 倍; EC50 [3]: 0.22 nM; fold change of EC50 against 2G6-Fab (マウスTFPI (mouse TFPI) [5]): 10 倍 |
| TP-3F2 (Fab, V domains shown, Human Fab (HuCal Gold), made in E. coli TG1) VH: QVQLVESGGGLVQPGGSLRLSCAASGFTFSSYSMHWVRQAPGKGLEWVSGISYSSSFTYYADSVKGRFTISRDNSKNTLYLQMNSLRAEDTAVYYCARALGGGVDYWGQGTLVTVSS VL: DIELTQPPSVSVAPGQTARISCSGDNLPSKSVYWYQQKPGQAPVLVIYGDNNRPSGIPERFSGSNSGNTATLTISGTQAEDEADYYCQSWTSRPMVVFGGGTKLTVLG | binds | – |
| TP-3F1 (Fab, V domains shown, Human Fab (HuCal Gold), made in E. coli TG1) VH: QVQLVQSGAEVKKPGESLKISCKGSGYSFTDYWIGWVRQMPGKGLEWMGIIQPSDSDTNYSPSFQGQVTISADKSISTAYLQWSSLKASDTAMYYCARFMWWGKYDSGFDVWGQGTLVTVSS VL: DIELTQPPSVSVAPGQTARISCSGDNIGSYFASWYQQKPGQAPVLVIYDDSNRPSGIPERFSGSNSGNTATLTISGTQAEDEADYYCEGSNVFGGGTKLTVLG | binds | – |
| TP-3G3 (Fab, V domains shown, Human Fab (HuCal Gold), made in E. coli TG1) VH: QVQLVESGGGLVQPGGSLRLSCAASGFTFSSYSMSWVRQAPGKGLEWVSSISSSSSNTYYGDSVKGRFTISRDNSKNTLYLQMNSLRAEDTAVYYCARMHYKGMDIWGQGTLVTVSS VL: DIQMTQSPSSLSASVGDRVTITCRASQNIHSHLNWYQQKPGKAPKLLIYDASSLQSGVPSRFSGSGSGTDFTLTISSLQPEDFAVYYCQQYYDYPLTFGQGTKVEIKR | binds | – |

Second part, led by results:

| binding result [1] | Binder | also measured |
| --- | --- | --- |
| binds | TP-2B1 (Fab, V domains shown, Human Fab (HuCal Gold), made in E. coli TG1) VH: QVQLVESGGGLVQPGGSLRLSCAASGFTFSSYSMSWVRQASGKGLEWVSSIKGSGSNTYYADSVKGRFTISRDNSKNTLYLQMNSLRAEDTAVYYCARNGGLIDVWGQGTLVTVSS VL: DIELTQPPSVSVAPGQTARISCSGDNLGNKYAHWYQQKPGQAPVLVIYYDNKRPSGIPERFSGSNSGNTATLTISGTQAEDEADYYCQSWTPGSNTMVFGGGTRLTVLG | – |
| binds | TP-2B3 (Fab, V domains shown, Human Fab (HuCal Gold), made in E. coli TG1) VH: QVQLQQSGPGLVKPSQTLSLTCAISGDSVSSNSAAWGWIRQSPGRGLEWLGMIYYRSKWYNSYAVSVKSRITINPDTSKNQFSLQLNSVTPEDTAVYYCARTMSKYGGPGMDVWGQGTLVTVSS VL: DIVLTQSPATLSLSPGERATLSCRASQNIGSNYLAWYQQKPGQAPRLLIYGASTRATGVPARFNGSGSGTDFTLTISSLEPEDFAVYYCQQLNSIPVTFGQGTKVEIKR | – |
| binds | TP-3G1 (Fab, V domains shown, Human Fab (HuCal Gold), made in E. coli TG1) VH: QVQLQQSGPGLVKPSQTLSLTCAISGDSVSSNSGGWGWIRQSPGRGLEWLGLIYYRSKWYNAYAVSVKSRITINPDTSKNQFSLQLNSVTPEDTAVYYCARYLGSNFYVYSDVWGQGTLVTVSS VL: DIQMTQSPSSLSASVGDRVTITCRASQGISSYLHWYQQKPGKAPKLLIYGASTLQSGVPSRFSGSGSGTDFTLTISSLQPEDFATYYCQQQNGYPFTFGQGTKVEIKR | – |
| binds | TP-3E1 (Fab, V domains shown, Human Fab (HuCal Gold), made in E. coli TG1) VH: QVQLVESGGGLVQPGGSLRLSCAASGFTFSNYAMTWVRQAPGKGLEWVSVISSVGSNTYYADSVKGRFTISRDNSKNTLYLQMNSLRAEDTAVYYCARPTKAGRTWWWGPYMDVWGQGTLVTVSS VL: DIELTQPPSVSVAPGQTARISCSGDNIGSYYAYWYQQKPGQAPVLVIYDDSNRPSGIPERFSGSNSGNTATLTISGTQAEDEADYYCQSYDSTGLLVFGGGTKLTVLG | – |
| binds | TP-4A7 (Fab, V domains shown, Human Fab (HuCal Gold), made in E. coli TG1) VH: QVQLVESGGGLVQPGGSLRLSCAASGFTFRNYAMNWVRQAPGKGLEWVSVISGSSSYTYYADSVKGRFTISRDNSKNTLYLQMNSLRAEDTAVYYCARADLPYMVFDYWGQGTLVTVSS VL: DIELTQPPSVSVAPGQTARISCSGDALGSKFAHWYQQKPGQAPVLVIYDDSERPSGIPERFSGSNSGNTATLTISGTQAEDEADYYCQAYDSGLLYVFGGGTKLTVLG | – |
| binds | TP-2A10 (Fab, V domains shown, Human Fab (HuCal Gold), made in E. coli TG1) VH: QVQLVESGGGLVQPGGSLRLSCAASGFTFTSYSMNWVRQAPGKGLEWVSAISYTGSNTHYADSVKGRFTISRDNSKNTLYLQMNSLRAEDTAVYYCARAFLGYKESYFDIWGQGTLVTVSS VL: DIELTQPPSVSVAPGQTARISCSGDKLGKKYVHWYQQKPGQAPVLVIYGDDKRPSGIPERFSGSNSGNTATLTISGTQAEDEADYYCQAWGSISRFVFGGGTKLTVLG | – |
| binds | TP-3H2 (Fab, V domains shown, Human Fab (HuCal Gold), made in E. coli TG1) VH: QVQLVESGGGLVQPGGSLRLSCAASGFTFNSYYMSWVRQAPGKGLEWVSNISSSGSNTNYADSVKGRFTISRDNSKNTLYLQMNSLRAEDTAVYYCARVHYGFDFWGQGTLVTVSS VL: DIELTQPPSVSVAPGQTARISCSGDKLGKYYAYWYQQKPGQAPVLVIYGDSKRPSGIPERFSGSNSGNTATLTISGTQAEDEADYYCSSAAFGSTVFGGGTKLTVLG | – |
| binds | TP-2B8 (Fab, V domains shown, Human Fab (HuCal Gold), made in E. coli TG1) VH: QVQLVQSGAEVKKPGASVKVSCKASGYTFTGNSMHWVRQAPGQGLEWMGTIFPYDGTTKYAQKFQGRVTMTRDTSISTAYMELSSLRSEDTAVYYCARGVHSYFDYWGQGTLVTVSS VL: DIELTQPPSVSVAPGQTARISCSGDNLRGYYASWYQQKPGQAPVLVIYEDNNRPSGIPERFSGSNSGNTATLTISGTQAEDEADYYCQSWDSPYVHVFGGGTKLTVLG | – |
| binds | TP-4B7 (Fab, V domains shown, Human Fab (HuCal Gold), made in E. coli TG1) VH: QVQLQQSGPGLVKPSQTLSLTCAISGDSVSSNSAAWSWIRQSPGRGLEWLGIIYKRSKWYNDYAVSVKSRITINPDTSKNQFSLQLNSVTPEDTAVYYCARWHSDKHWGFDYWGQGTLVTVSS VL: DIVMTQSPLSLPVTPGEPASISCRSSQSLVFSDGNTYLNWYLQKPGQSPQLLIYKGSNRASGVPDRFSGSGSGTDFTLKISRVEAEDVGVYYCQQYDSYPLTFGQGTKVEIKR | – |
| binds | TP-2B4 (Fab, V domains shown, Human Fab (HuCal Gold), made in E. coli TG1) VH: QVQLVESGGGLVQPGGSLRLSCAASGFTFSNYSMTWVRQAPGKGLEWVSGISYNGSNTYYADSVKGRFTISRDNSKNTLYLQMNSLRAEDTAVYYCARIYYMNLLAGWGQGTLVTVSS VL: DIELTQPPSVSVAPGQTARISCSGDALGTYYAYWYQQKPGQAPVLVIYGDMNRPSGIPERFSGSNSGNTATLTISGTQAEDEADYYCQSYDAGVKPAVFGGGTKLTVLG | – |
